Measurements taken from the DeepSol protein solubility set.

Assay: soluble on expression in E. coli; label from the status in PepcDB or PDB records

Sequence	soluble on expression in E. coli
MGSDKIHHHHHHMTHPQDQHPPQDARTLPTRDHDASEALLERVRQAAATGTALRLVGGGSKGFYGRPVVGETLSLAEHTGIVNYDPVELVVTVRAGTRLADLQAVLAQEGQQLAFEPPHFGENATVGGTVACGLSGPRRPWAGSVRDFVLGTRMITHDGKRLHFGGEVMKNVAGYDLSRLMVGAQGTLGIIDEVSFKVLPRPAASATLRLEMGLGDAMARLAEWGRKPMPITGAAHDGETLHLRLEGGASSVANTQAQLGGELDDTAFWTQLRELELAFFSRRHDDRPLWRLSLPHRAPPLALDGDTLVDWAGAQRWLRSELPAATIRQHAAQAGGHATLVDRDRAHGVDAPFTPLSVVMDKYHRQLKAKLDPKGIFNPGRLYEGL	not soluble
MGSDKIHHHHHHMTIEMKNNKNNNCNFPTLRFPEFSGEWKKDIIGNVISVKSEKYNPHSNRTEFICVELESISQGTGELLETFNSAEQKSIKNKFSPGTVLFGKLRPYLRKFYLPYFEGVCSSEIWVMRSNKIEPAFLYSFIQTPYFISLANQSSGSKMPRADWGLIETSKIAYPPNSAERVKIGKFLKLIDERIATQNKIIAHLESLIKGLTNQLLIPNSNWQPTTIGQVLTINPGKDYKHLKEGNIPVYGTGGYMLSVNDYLYDGESVCIGRKGTINKPIFLTGKFWTIDTLFYTSNFNSLLPRFGYYLFKTIDWLKYNEASGVPSLSKVSIEKIHISLPSLAIQNSICRLLDSIYDKLALEESVLNNHQTQKAFILQQMFI	not soluble
MGSDKIHHHHHHMTITEKRKDFILNSWIKISDDCLKEYLSRELELTDKGQVKSTTTNIITAIVNPDYCVSHKILNGSVFFDTCSQTIRLIGSIKGESEVNLKAPRKWTDQLTNLLGVEIEMNFGIKYSKGRMEEAVIFIANKRRVNLPKLYMKSLKYDGEDYISKLLPKYLGVDDTALNRWIMEHMLIGMVNRVFYPGCKFDEIMVLTGEQGVGKTSFIEKLALLPDWYCSLNNIKGKDAVSNLVGKIVVELEEFVALKNAKTADEAKLFISTRTSTVRLSYERFSADVDRTCIMIATTNDMTFLGDFSGERRYLPVQVHKEKVGLPVMYDQEKFPQLKGVSREEYSKIVKKDFEGAVAQAVYLFENKLYSPVLPVELRKDLNQVIQMHKNENRHVQNFFEFMDWKDTKSDTPNRVCSGEFLSQYPQTNEKVFAELMANEMADKWELEPTDKSRKFKIDGRVRVSKKFYVRKNMPDFIEVTDDIEIPF	not soluble
MGSDKIHHHHHHMTKIESLGSVKRKAVNISPEDLIKTEFLQPGNNFPLVIKPNVKGVDLQNWAKNNREFLKAELLKYGAILFRDFKVKSIEEFEQIIAAICGEAMEYRYRASPRTQVGGRIYTSTDYPAEQSIFPHNEHAYSPTFPLKIFFFCMSPAAQGGETPIGSCRKVFERIHPDIRDRFIQKKVMYMRNFGDGFGLPWQTVFQTTDKTKVEEYCKINGIEVEWKADNRLRTRQVGPVVLKHPQTGEMVWFNHATFFHVSTLESTIRDSLLTNLPEEDLPTNTYYGDGSAIEPSVLAELRAAYQQEMVTFSWEKGHVLMLDNMLSIHARQPFVPPRKILVGMAEAHTPIPLG	not soluble
MGSDKIHHHHHHMTKLRIAVQGCCHGQLNQIYKEVSRIHAKTPIDLLIILGDFQSIRDGQDFKSIAIPPKYQRLGDFISYYNNEIEAPVPTIFIGGNHESMRHLMLLPHGGYVAKNIFYMGYSNVIWFKGIRIGSLSGIWKEWDFNKQRPDWNDLENNNWKANIRNLYHVRISDIAPLFMIKHRIDIMLSHDWPNGVVYHGDTKHLLKLKPFFEQDIKEGKLGSPVTWQLLRDLRPQWWLSAHLHVRFMASIKHNKRSHEPPNKSTSKTKKNNNEIDLDLSSDEDERSGIMNCQEENEYDSKYGETRFLALDKCLPRRRWLEILEIEPDTSHASWKDENHRMFWDPEFINNLVICQKNKNLLSNKPFNSVNWIELSQSNREEGRDIDWENYAIPAYTLDIQKDEVRQTKAFISKFMT	not soluble
MGSDKIHHHHHHMTKNARQTALDVLNDIFGNDAYANISLDRNLRDSELSTVDKAFVTALVYGVVSKKDLLEWHITPFLKKEPKPWAKMLLLLTVYQILFMDKVPTSAAVDEAVKIAKRRDGQATANFINAVLRNFMRSEHRNEEPKDWETKYSMPKLLLDKMVRQFGGKRTGEILESLEKPSHVSLRKIDPTVEISGTRASLLTESALIADSGNFAMTEEFQSGRITIQDETSQLVAPQLDLEGTEEVLDACAAPGGKSTHMAQYLTIGHITALDLYDHKLDLINQNAERQHVADKITTQKADATMIFEEFGSDKFDRILVDAPCSGIGLIRRKPDIRYRKESSDFVDLQKIQLEILNSASKSLKKSGIMVYSTCTIFDEENFDVVRQFLESHPNFEQVEISSDKADMIKEGCIFITPEMYHTDGFFIAKFKKIGE	not soluble
MGSDKIHHHHHHMTKNSETGHISEGGGILTRPDDATIAYRRLEGKTPGVVFLHGFHSDMEGSKALALEAMCQAQGRAFLRFDYFGHGKSSGDVALGTIGRWAADAVAVIGELTKGPQILVGSSLGGWIALLAALEMKDKVAGLVGVAAAPDFTEDLMWQDFTFEQRRTLMETGELELPNCHEPDNPWRIHRSLIEDGRNHLLLRDLIQIHCPVWLIQGQKDEDVPWQTALRLADCLASEQVEIVLVKDGDHRLSRDGDLIRLTNMVAAMLGMIQEL	not soluble
MGSDKIHHHHHHMTKQLLVLQSDFGISDGAVSAMYGVINSVSKDLQIYDLTHQIPQFNIWEASYRLLQTVTYWPEDTIFVSIVDPGVGSKRRSVVVLTEDGHYIITPDNGTLTHIAHYGTIKEVRLIDEEKNRLPKSGASHTFHGRDIFAYTAARLAAGVINFEDIGPSATPDSIVSLSLSDSYLEGEQAFGTIDIIDRPFGNLWTNIRRTDFLQLGANYGDSIEVLIKHHDRVVYKNFVTYSRSFADLRIGEALIYVNSLDNLGLGINQGSFVDAYSVGTGTSWKVTLKKV	not soluble
MGSDKIHHHHHHMTLDNHHCVQLVPLFEKLAEQDLTKVEKIVEHKKIKKGEIIISPDKEPLLVIVAQGALKISQLSQSGKEQLLRIIEAGDYEGEGALLGVTNGQLYGQAMIDSTICFLRQSDFETLLTTYPSLSLQLLKLNAKKYLAAEHQAGFLALDDVEARLAHYFLNLSATSDSIYFEIPMKLKELANYIGTSPETISRKIKVFEENKIISRQGRMIKLLDKEKLEDDFA	not soluble
MGSDKIHHHHHHMTLHKICILGGTGFVGRHLAERLSQKGHAVRILTRNRERHRENLLVLPGVELIEANVHDPVALKKQLAGRDVVINLVGILNERHQGDFDRNHVELPRLVVGACNDLGIPRLLHMSALGASPTGPSAYLRSKGTGEEIVRQSNGNRAEMGRFDDLEEPMPLWSHGLKTTSFRPAVIFGEGDSFFNRFAGLLRRIPFFIPLARSKARMQPVWIEDVVSAYVQSMDDEKTYGQAYDLCGPKVYTLGELVAYTQSLIGTRRVIVPLGDFAGNLQASIMERLPGKVLTRDNLLSLSIDSVCTRNDLAESFQIEATSVESIVPGYLGGKGARAERLAEIRNRRS	not soluble
MGSDKIHHHHHHMTNAVYTLIVRALSGIVSERAAETLLRAALREQGLTAEGVTAGEMQRVLSGPLLTRLSGVLPPERARAELGNLAAQLQKHYPKAPTLFSSPAATWDETTSTHWEDIDFSADDFEFDDPEYTATPPERQYALGTAAGQEALIQDLGRIPGVQGVMVCRASGEVLRERALSGSRNLSSVIAATALLFQKRALNLMSADMGGQTVCMRPVGAYCVAVVAGPQVNIGRLLAELQQVREAA	not soluble
MGSDKIHHHHHHMTNLLEASIEQAGYTSRKKVLTDVFLEVRKGELVGLIGANGAGKSTAIKAILGLSEDFKGHIAWNDCSFAYIPEHPSFYEELTLWEHLDLISTLHGIEESEFAHRAQSLLQTFSLDHVKHELPVTFSKGMQQKLMLIQAFLSKPDMYVIDEPFIGLDPISTKRFVDMLKAEKERGAGILMCTHVLDTAEKICDRFYMIEKGSLFLQGTLKDVQDKTGLEGQSLLDCFYKAVQGDRL	not soluble
MGSDKIHHHHHHMTPADNEIAEQQNFVDFNSILYTPQYAAGCFGLTTRRLMAIEEEHGLDIKRIKRGSSTSRVYTASDLFNIAALRRSLGHLKPIGRQIVASTFVPKGGTAKTTTAVNLAISAQFAGIKTLIIDNDPQGDTSNMLGYDPDLSPDDLVDMNIPSDRLVDGHFGNLLSPLLRMKPFSEKVLADVIKKPFGENGIHLIPADTYLEDLAVALDASNNSDMWYARFIEDANAGKVPGCDLSVYDLIIIDNAPAGSRLTKNSVAASDLLLCPVRMDKFSFRALLRLHEWCARFAKEYSYAPALMAIPTMFIRKRARLLANLQSLNTLFPGQVTEEKIYFSEDYSKSLDDGIPLMLWKRANSQTIDTARLVFGEILQKIRSLAA	not soluble
MGSDKIHHHHHHMTPEMYADKYREYASAMPTFQKSIFDQNPIYKIASGPDGNKPIERVKWTKDFLKAFSRYRQPGINAMDLHFYNWNIEHESDTPTDFGEDDWYRVINGTRELDQIINQQADLIKEGLQNIPQPESSLDHRLDRIDLVVGEWGNWHRTAFTAKPALKQQVTMRDAISTALMLDILQKNSDKVTMACVAQTINVLNALILTEGDQTILTPNYDVFMMYKAHRGNSALKIQTNQDQKNVYTFASKKDGEIILDVINANLNDQVKLTVELNREIESISKDFLQSDRPTDFNSSDNPDLIRMQQTEVKDFSKGEITLELSPASVNVFHIKTID	not soluble
MGSDKIHHHHHHMTPSTPTLATRWEPLPPRVVAELLGPSSARWWLSGGVALDHWLGTNTREHDNIDVSTTIADLPQVVQDLPAPFSAWAPSGDGVVPWAEADMDADLQPIRIHDDATGAWVMQVDVEDGTDSLWVYRRDPRLQLPWDRAVIDVDGIPTGAPEVQLVWKALRPRPEDDADKDAVLPELSNEARAWWEHAILTIHPHSSWSIHVRTPFAPGKASWNRTRR	not soluble
MGSDKIHHHHHHMTQALTKQVIFDEFIDWLPENSEGRYELHDGVIVEMPKPSGKHSNVIGFLIEELFLSIIQIGKRGIWTIPRESIVKPNSKSGYEPDIIVLDQEALSNEPRWERESIIENPASVKLIVEVVSTAVASSRETRPTHCLTNWRDDYYKKRADYVRVASRREEMGIPEYWIVDYAGLGGRAFIGNPKQPTISVNYLIEGEYQVSQFRQGERIQSVTFPELDLTVDQIFQVG	not soluble
MGSDKIHHHHHHMTQNVIEMKEITKKFGDFVANDHINLTVEKGEIHALLGENGAGKSTLMNMLAGLLEPTDGQIFINGQPVTIDSPSKSSQLGIGMVHQHFMLVEAFTVAENIVLGNETTQNGVLDIKTAAKEIKELSEKYGLSVNPNAKISDISVGAQQRVEILKTLYRGADILIFDEPTAVLTPSEIKELMTIMKSLVKEGKSIILITHKLDEIRAVADKVTVIRRGKSIETVPVAGASSQQLAEMMVGRSVSFRTEKKEANPTDIILSVKDLVVEENRGGVLAVKNLSLDVRAGEIVGIAGIDGNGQSELIQAITGLRKVTSGQIVIKGKDVTKFSSRQITELSVGHVPEDRHRDGLVLDMTMAENLALQTYYKEPLSHKGILNFAKIKEYARQLMTEFDVRGAGEHVLARGFSGGNQQKAIIAREVDRDPDLLIVSQPTRGLDVGAIEYIHKRLIEERDKGKAVLVVSFELDEILNLSDRIAVIHDGKIQGIVKPDQTNKQELGILMAGGKIEKEERDV	not soluble
MGSDKIHHHHHHMTREYGTGEIFHQMGDRVDALHYVLEGHVVAKAVTPEGVERYVLGFLPGTIFGQSPFFNRAPAETLFVSVGHTVAVALGRDYIYGEVAQRHPSLLLNLLESDAYRHRVFGRHIADATLRDLETRLCRFILHLVTEASDPVPVEQALTDAAAEVHPRTGDEGAEGPADCPARCHSGASALFSHPGLTHEDVARYLGLHRVTVSNLLGGLRRAGVLGQFNRKVIEVCDGAELVARAGMSGDGDRWP	not soluble
